The target of assay [1] is commercial Spike protein, active Recombinant 2019-nCoV Spike Protein, RBD, His Tag (SARS-CoV-2) (UniProt P0DTC2). The assay is described as follows: ELISA. A general note: In an ELISA, binding on a coated surface is turned into a signal by an enzyme label.
For assay [2], the target named is plant produced deglycosylated Receptor Binding Domain of Spike protein of SARS-CoV-2 (SARS-CoV-2) (UniProt P0DTC2). The assay is described as follows: ELISA.

Usually Kd stands for the constant that tells how readily two partners part at equilibrium.

Take “plant produced Endo H in vivo deglycosylated soluble (truncated) human ACE2 (receptor)”: the figures for the Kd in assay [1] and in assay [2] were 4.68 nM and 1.29 nM, respectively.

The values are drawn from article PMC8685454.
